From patent US20020062009A1 (GlaxoSmithKline, published 2002)

Legend:
[1] = molecular target: T1, human erythropoietin receptor (EPOr), recombinant entire extracellular domain (human, UniProt P19235 25-250); experiment: BIAcore 1000 SPR; antibody captured by protein A-bound rabbit anti-mouse Fc, monomeric EPOr in solution, 20 C; KD from ratio of kinetic constants
T1 construct: extracellular domain; also called human EPOr; monomeric EPOr
T1 sequence (looked up): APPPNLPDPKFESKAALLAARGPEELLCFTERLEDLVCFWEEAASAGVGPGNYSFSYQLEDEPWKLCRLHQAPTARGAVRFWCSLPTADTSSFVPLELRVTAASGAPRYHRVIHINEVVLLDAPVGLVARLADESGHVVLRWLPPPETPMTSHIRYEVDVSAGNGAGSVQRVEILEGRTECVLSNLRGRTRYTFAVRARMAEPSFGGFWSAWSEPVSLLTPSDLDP
Procedure: (§1) A BIAcore analysis (Pharmacia) was performed to determine the binding affinity for human EPOr of murine 3G9 and CP3G9. The interaction of CP3G9 as well as murine 3G9 with EPOr was characterized using a BIAcore 1000 biosensor. Descriptions of the instrumentation and the sensor surfaces are described in Brigham-Burke et al., Anal. Biochem., 205:125-131 (1992).
(§2) CP3G9 was captured onto a sensor surface of immobilized protein A. The kinetic binding constants were determined by passing solutions of monomeric EPOr over the surface and monitoring binding versus time. The equilibrium dissociation constant for the interaction was then derived from the ratio of the kinetic constants. The parent murine 3G9 was captured onto a surface of protein A captured rabbit anti-mouse Fc specific polyclonal antibody. The kinetics and dissociation constant for the interaction with EPOr was determined as described above. All measurements were made in 10 mM sodium phosphate, 150 mM NaCl pH 7.23 mM EDTA and 0.005% Tween 20. The flow rate was 60 uL/min. The temperature was 20° C.

[2] = molecular target: T1, human erythropoietin receptor (EPOr), …; experiment: BIAcore 1000 SPR; antibody captured by protein A-bound rabbit anti-mouse Fc, monomeric EPOr in solution, 20 C
Procedure: as §1, §2

[3] = molecular target: T1, human erythropoietin receptor (EPOr), …; experiment: BIAcore 1000 SPR; antibody captured by protein A-bound rabbit anti-mouse Fc, monomeric EPOr in solution, 20 C (exponent as printed; kon and KD imply 10^-3)
Procedure: as §1, §2

[4] = molecular target: T1, human erythropoietin receptor (EPOr), …; experiment: BIAcore 1000 SPR; antibody captured on immobilized protein A, monomeric EPOr in solution, 20 C (exponent as printed; kon and KD imply 10^-3)
Procedure: as §1, §2

[5] = molecular target: T1, human erythropoietin receptor (EPOr), …; experiment: BIAcore 1000 SPR; antibody captured on immobilized protein A, monomeric EPOr in solution, 20 C
Procedure: as §1, §2

[6] = molecular target: T1, human erythropoietin receptor (EPOr), …; experiment: BIAcore 1000 SPR
Procedure: as §1, §2

[7] = molecular target: T1, human erythropoietin receptor (EPOr), …; experiment: BIAcore 1000 SPR; antibody captured on immobilized protein A, monomeric EPOr in solution, 20 C; KD from ratio of kinetic constants
Procedure: as §1, §2

[8] = molecular target: T2, purified human alpha v beta 3 integrin (biotinylated) (human, UniProt P06756 31-1048; P05106 27-788, limits assumed); experiment: ORIGEN electrochemiluminescence; antibody dilutions with biotinylated purified integrin, captured on streptavidin beads
T2 construct: also called αvβ3; human integrin αvβ3
T2 sequence (P06756 31-1048 limits assumed, form in doubt, chain 1 of 2): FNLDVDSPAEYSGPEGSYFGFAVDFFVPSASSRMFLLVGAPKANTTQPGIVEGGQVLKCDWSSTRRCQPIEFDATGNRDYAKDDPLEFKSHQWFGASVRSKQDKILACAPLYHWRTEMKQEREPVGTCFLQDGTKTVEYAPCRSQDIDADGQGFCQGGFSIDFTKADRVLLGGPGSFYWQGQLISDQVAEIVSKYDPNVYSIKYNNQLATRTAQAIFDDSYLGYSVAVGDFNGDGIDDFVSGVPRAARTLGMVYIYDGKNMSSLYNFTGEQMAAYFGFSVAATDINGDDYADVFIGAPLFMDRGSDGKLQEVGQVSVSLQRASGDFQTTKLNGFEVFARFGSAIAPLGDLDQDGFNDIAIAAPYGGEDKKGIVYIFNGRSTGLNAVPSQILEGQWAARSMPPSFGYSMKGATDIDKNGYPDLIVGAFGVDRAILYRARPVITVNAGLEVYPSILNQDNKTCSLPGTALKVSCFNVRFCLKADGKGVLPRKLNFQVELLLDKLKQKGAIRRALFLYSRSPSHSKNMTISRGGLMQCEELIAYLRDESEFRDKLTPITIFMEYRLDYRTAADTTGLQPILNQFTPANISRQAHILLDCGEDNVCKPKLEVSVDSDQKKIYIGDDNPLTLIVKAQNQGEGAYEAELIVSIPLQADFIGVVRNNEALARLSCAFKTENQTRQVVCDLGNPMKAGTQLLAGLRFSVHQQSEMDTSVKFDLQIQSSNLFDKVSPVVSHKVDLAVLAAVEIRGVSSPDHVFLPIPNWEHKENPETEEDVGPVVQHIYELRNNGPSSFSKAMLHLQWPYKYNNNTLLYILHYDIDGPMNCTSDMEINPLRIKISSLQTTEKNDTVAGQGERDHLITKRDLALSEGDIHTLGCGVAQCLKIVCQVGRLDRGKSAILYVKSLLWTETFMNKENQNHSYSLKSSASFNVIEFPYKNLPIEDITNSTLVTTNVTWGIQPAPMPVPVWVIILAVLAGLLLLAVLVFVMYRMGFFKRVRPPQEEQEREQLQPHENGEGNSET
T2 sequence (P05106 27-788 limits assumed, form in doubt, chain 2 of 2): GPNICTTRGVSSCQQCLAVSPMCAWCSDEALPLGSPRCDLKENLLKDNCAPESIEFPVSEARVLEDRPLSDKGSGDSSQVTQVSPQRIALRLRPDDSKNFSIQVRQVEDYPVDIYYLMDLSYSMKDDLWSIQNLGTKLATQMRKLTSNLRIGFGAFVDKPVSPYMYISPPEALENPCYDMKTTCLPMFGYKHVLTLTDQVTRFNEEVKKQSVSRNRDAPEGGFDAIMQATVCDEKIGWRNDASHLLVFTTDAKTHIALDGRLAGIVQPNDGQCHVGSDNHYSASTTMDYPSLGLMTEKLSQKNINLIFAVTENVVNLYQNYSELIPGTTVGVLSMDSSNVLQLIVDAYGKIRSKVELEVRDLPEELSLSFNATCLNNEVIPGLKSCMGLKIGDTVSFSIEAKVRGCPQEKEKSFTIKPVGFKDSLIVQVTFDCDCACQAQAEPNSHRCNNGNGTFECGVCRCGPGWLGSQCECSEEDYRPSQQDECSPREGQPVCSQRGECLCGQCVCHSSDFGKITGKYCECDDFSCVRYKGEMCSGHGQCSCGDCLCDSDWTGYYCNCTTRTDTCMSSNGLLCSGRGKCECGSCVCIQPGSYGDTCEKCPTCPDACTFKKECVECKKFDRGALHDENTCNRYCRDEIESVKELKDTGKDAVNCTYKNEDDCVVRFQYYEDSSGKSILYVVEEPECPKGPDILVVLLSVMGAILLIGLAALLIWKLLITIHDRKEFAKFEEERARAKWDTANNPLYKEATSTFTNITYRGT
Procedure: The relative binding avidity of CPB9 was compared to that of the original murine B9 antibody as follows. CPB9 antibodies present in culture supernatants from cells maintained in culture for 5 days after transfection with the expression constructs were compared to the parental murine B9 antibody using the ORIGEN technology (IGEN Inc, Gaithersburg, Md.). Briefly, different dilutions of the B9 variants were incubated with purified human αvβ3 integrin which had previously been biotinylated, and an electrochemiluminescent TAG moiety specific for the antibody C regions. B9 variant antibody bound to the integrin was measured by capturing the immune complexes onto streptavidin beads followed by analysis on the ORIGEN instrument.

B1: murine anti-erythropoietin receptor antibody 3G9 (antibody, V domains shown)
VH: QVQLQQPGAELVKSGASVKLSCKASGSTFTSYWMHWVKQRPGRGLEWIGRIDPNSGGTKDNEKFKSKATLTVDKPSSTAYMQLSSLTSEDSAVYYCARETYYDSSFAYWGQGTLVTVSA
VL: DIVMTQSQKFMSTSVGDRVSVTCKASQNVGTNVAWYQQKPGQSPKALIYSASYRYSGVPDRFTGSGSGTDFTLTISNVQSEDLAEYFCQQYNSYPLTFGAGTKLELKR
notes: Murine monoclonal antibody; also called murine 3G9; parent murine 3G9
Binder B1 has a Kd [1] of 3.3 nM, a kon [2] of 1.2e+06 M⁻¹ s⁻¹ and a koff [3] of 0.004 s⁻¹.

B2: engineered 3G9 (CP3G9), chimpanzee framework engineered anti-erythropoietin receptor antibody (antibody, IgG1, V domains shown)
VH: QVQLVQSGAEVKKPGSSVKVSCKASGSTFTSYWMHWVKQAPGQGLEWIGRIDPNSGGTKDNEKFKSKATLNVDKSTNIAYMELTSLRSEDTAVYYCARETYYDSSFAYWGQGTMVTVS
VL: DIVMTQSPSSLSASVGDRVTITCKASQNVGTNVAWYQQKPGKAPKALIYSASYRYSGVPDRFSGSGSGTDFTLTISSLQPEDFATYYCQQYNSYPLTFGGGTKVEIK
notes: They were ligated into vectors with IgG1,kappa antibody constant regions and expressed in COS cells; also called chimpanzee version of 3G9
In the case of B2, the koff [4] is reported as 0.0091 s⁻¹, the kon [5] is reported as 1e+06 M⁻¹ s⁻¹ and the “fold difference of KD against murine 3G9” value [6] is reported as no more than 3 fold. For the same binder, the Kd [7] was 9.1 nM.

B3: engineered B9 (CPB9), chimpanzee framework engineered anti-integrin antibody (antibody, IgG1, V domains shown)
VH: QVQLVQSGAEVKKPGSSVKVSCKASGYTFSSYWIEWVKQAPGQGLEWIGEILPRSGNTNYNEKFKGKASFNADTSTNIAYMELTSLRSEDTAVYYCSSRGVRGSMDYWGQGTLVTVSS
VL: DIQMTQSPSSLSASVGDRVTITCRSSQDISNFLNWYQQKPGKAPKLLIYYTSTLHSGVPSRFSGSGSGTDYTLTISSLQPEDFATYYCQQGNTLPWTFGGGTKVEIKR
notes: They were ligated into vectors with IgG1,kappa antibody constant regions and expressed in COS cells; Tested as culture supernatant
For B3, the “fold displacement of binding curve against murine B9” value [8] was roughly 3 fold.
